Assay: soluble on expression in E. coli; label from the status in PepcDB or PDB records

| Sequence | soluble on expression in E. coli |
| --- | --- |
| MEKIIVRGGKQLNGSVKMEGAKNAVLPVIAATLLASKGTSVLKNVPNLSDVFTINEVLKYLNADVSFVNDEVTVDATGEITSDAPFEYVRKMRASIVVMGPLLARTGSARVALPGGCAIGSRPVDLHLKGFEAMGAVVKIENGYIEATAEKLVGAKVYLDFPSVGATQNIMMAATLAEGTTVIENVAREPEIVDLANFLNQMGARVIGAGTEVIRIEGVKELTATEHSIIPDRIEAGTFMIAAAITGGNVLIEDAVPEHISSLIAKLEEMGVQIIEEENGIRVIGPDKLKAVDVKTMPHPGFPTDMQSQMMVIQMLSEGTSIMTETVFENRFMHVEEMRRMNADMKIEGHSVIISGPAKLQGAEVAATDLRAAAALILAGLVADGYTQVTELKYLDRGYNNFHGKLQALGADVERVDDSKVDVTNLASLF | not soluble |
| MGSDKIHHHHHHMTIARRKSREVTIGNVRIGGDNPVVVQSMTNTDTRDVEQTVEQINSLAEAGCEIVRVAVLNDDAAWAIRPIKDQVTVPLVADIHFDHRLAVSALEAGVDALRINPGNIGGQKNVDKVVDAAKAHGSVIRVGVNGGSLERDLVEKYCGPTPEAMVESALRHVRMLEDRNFDNIKISLKSSSVTDTVTAYRLLGQQCEYPLHIGVTEAGTMLRGSVKSSVGIGILLWQGIGDTLRVSLTEDPVAEMAVAWEILRSLGLRFRGPEIISCPTCGRTEIDLISLAGEIERRLQNETQSFKVAVMGCVVNGPGEAREADIGIAGGRDKGIIFRHGEVIRTVKGGSNLLAAFNEELDKFLAERQGR | not soluble |
| MLPCRANCFTLEISLMHINIAWQDVDTVLLDMDGTLLDLAFDNYFWQKLVPETWGAKNGVTPQEAMEYMRQQYHDVQHTLNWYCLDYWSEQLGLDICAMTTEMGPRAVLREDTIPFLEALKASGKQRILLTNAHPHNLAVKLEHTGLDAHLDLLLSTHTFGYPKEDQRLWHAVAEATGLKAERTLFIDDSEAILDAAAQFGIRYCLGVTNPDSGIAEKQYQRHPSLNDYRRLIPSLM | not soluble |
| MGSDKIHHHHHHMVKRMHCNINLKYGVIMKKDCYTLRISLKPGFINAEQLKAIAYVIENFGDNKAHITTRQGIEFKISPEHLEEVEKILNNVGLNLGSTGNRVRQVVSCIGLECYNAIGDSVSLARRIHEEFEGVWVPRKVKINVSGCPNSCTFHRFCDIGICYRYKITINKEICTNCGKCKDFCDLNAIDWERKIIKDNCTGEGKCTGLCNAFKAERVISIFVGGKGGRIYKEGKHLIDLKNEDDVLFVIDELISLYAKFGKGRMADFVENYGIENLRNNIKELIK | not soluble |
| MEIKRQQEIVEAYHYDMRVPDSEVETDLRVSFSPIEVEEENYPENSSALVARLEFRIVFDEFVLSGAISQINHIIDRKIEKQEDISQEEVDELVRPLFSIVERLSYEVTEIALDRPGVQLNFQQSEEA | not soluble |
| MAHHHHHHMSGVVIKKPNLKRLLAGQREELASFQPPVHPIPEYLGSPLPYLSNPYHIRGTLMAVEQEPEPNHEADGGKQLMADIMNERARICLEVEKTLALTCRVLDKAAQNDGELTELARESLARLTVMGEDLSNRMITSRE | not soluble |
| MSLAETVLEKARAKNEIRIATSDSLKPWGYMDDTNKPIGFNLDVSREMGKRMGFGKVTFVTDSYKNFISGLNADRYDMVVAILTPTEERRKSADFSNPYMVVSKNIFVRDDNTSIRSLEDLAGKRLGVAAGTTDEAWARQHVKDAQIRVYDNFFLALQDLAIGRVDARITDRVTGMTAAKEGRFPVKIAGPDLSQDIGAIAYKKGQDDLAAIVNKVIQEMVDDGSLNEISRKWLAGIEMGEELKKLPKDAREGHHHHHH | soluble |
| MGRMHNPGKGMAKSAIPYRRSVPSWQKMTAEEVQDQIVKMAKKGLRPSQIGVILRDSHGVGQVRRLAGNKIFRILKSKGMAPELPEDLYHLVKKAVAIRKHLERSRKDIDSKYRLILVESRIHRLARYYKTKRQLPPTWKYESGTAASLVS | soluble |
| MVMPESHIHNIPMEQCVLVALMTFALSYELIAQDLDEGCFYPERHKQIYNAIVELANENQPYDVVMVEQRLKSKNLLHVLGGEQYLKIMLAEAPSSFHSMEPYITQLKKLKAHRQVEWLGQRISSMAQDTTQPDVFAEAENILGQVDNQEQSDQGMSFEAALDMALTEMIEKAEAKDKQQFTGVKFNLKHLDELLGTVQKGHFCVVGGRPGSGKSTLAQMLALDTASSFGKGVLFISAEMDQSTLANRMISALGLIPYHNIHNAELYNGLMKDYADAKAAYQRLPIWIQPKQKPSLSEVRSYARRAKRRYKELGCIIVDYLQLLRDPSKKDRFQEVSSISRELKSMAKEFECPVIALVQLNREAEKGKRPKASDIKESGQIEQDADQIILVNPLTDPEDSTKPMGITELIVVKNRHGKRGAVRVLDYLETCRFRSVEEQAEP | not soluble |
| VEADSNIGYNATFGYQKPMGGAGAYWGMEFGLGSRGFKADEMKCIAHNIQYSPFTFGWKIGVADNLSIDPHLGVFASYDYTSKMKESGESISWGDFADYLEVDYNHFDAGMNIGVGLWYDRFNLDFTYQRGFIDVFSDLDGIKTSNFMIRLGIAF | not soluble |
| MKTIEEIKSTPKTVMKKPELLAPAGNLEKLKIAVHYGADAVFLGGQEYGLRSNADNFTMEEIAEGVEFANRYGAKIYVTTNIIAHDENIEGLESYLRNLEKTGATGIIVADPLIIETCKEVAPKLEIHLSTQQSLSNYKAVEYWKEEGLDRVVLARETGAMEMREMKEKVDIEIEAFIHGAMCIAYSGRCTLSNHMTARDSNRGGCCQSCRWDYELLEVDDNGELDVFYNQGEVTPFAMSPKDLKLIESIPQMMDIGVDSLKIEGRMKSIHYIATVVSVYRKVIDAYAADPDNFKINPEWLIELDKCANRDTAPAFFEGTPGYEEQMFGQQQSKKSSFDFCGLVLDYNEDTKIATIQQRNNFKPGQEIEFFGPEIETFTQVVEAIYDEEGNSLDAARHPLQIVQIKVDRPIYPNNMMRKEIG | not soluble |
| MGSDKIHHHHHHAQLVERVCRTDYKISPERKGELLLELDNISFFKDNEFAGTVIKGYSLPGLWIQPKFVYYPLKNIKLEGGVHMLWFSGAYRYPSVSYQDIALWKGEQYQKGAHLLPFFRAQISMKSVDLILGNIYGGSNHGLIAPLYNPELNLTADPETGFQVLAGAPWIDLDAWIDWQSFIFRDDTHQEAFTVGLSTRFKLNAPSSTFHCYIPLQILAQHRGGEIDTIRESSVQTLMNGAVGAGVTWNIDRRILKRVNVELDAAGYYQQKGELWPYHKGIGVYSSAFVDLGNFRVKMGHWICNDFITMFGIPYFGTVSTKKEGITYDKPQTLFCSIEYSRMFGKHYALGLKADAYQFFPGTMRSANGELTSPGSTTSFSVGVYFRINPSFLLKKF | not soluble |
| HDTILFFSNKGKVYRAKGYEIPEYGRTAKGIPIINLLEVEKGEWINAIIPVTE | not soluble |
| GSKATDSVLQGSEGNKVKRTSCMYGANCYRKNPVHFQHFSHPGDSDYGGVQIVGQDETDDRPECPYGPSCYRKNPQHKIEYRHNTLPVRNV | soluble |
| PMILGYWNVRGLTHPIRLLLEYTDSSYEEKRYAMGDAPDYDRSQWLNEKFKLGLDFPNLPYLIDGSRKITQSNAIMRYLARKHHLCGETEEERIRVDVLENQAMDTRLQLAMVCYSPDFERKKPEYLEGLPEKMKLYSEFLGKQPWFAGNKITYVDFLVYDVLDQHRIFEPKCLDAFPNLKDFVARFEGLKKISDYMKSGRFLSKPIFAKMAFWNPK | soluble |
| MSVLEKIDSPADLKKVSNQELEELASEIRTAVLHKVSNIGGHVGPNLGVTELTIALHKVFNSPIDKFIWDVSHQTYPHKILTGRKNGFTDGHFHDITPYTSQRESEHDFFTVGHTSTSIANALGYAKARDLTNDKGNIVAVIGDGSLSGGLAMEALNNAGDFKGNLIILVNDNQMSIAENHGGLYRNLAELRATNGQAENNFFKTFGLDYKYLENGNDIESLIHLFEEVKDIDHPIVLHIHTEKGRGYQPALENKEAFHWHMPFDLETGQSKVIDSGKSYSSVMLDYMDKKVSEGLPLVAINAAIPGIFGLKQFAAKYPDRYIDAGIAEQFTITFGGAMAAAGARPIIFHNSTFVQRAYDQFWHDLAINEEPAIVIVKGGVISGSDETHQGSSAMTWISNIPNIKYLAPTSEEEFISILDWALEQHEEPVVIQMPEHGLESRPTVLTDYSTPSYQMTKSGEKVALLALGGLYSHGEKVAKVLAENGINATLINPLFINDLDQAFLENLVENHQVIATIEDGILDGGFGQKVASFLGKYDVKVLNFGAKREFNDSVPVTELYNRYHLTPELMVADILSLLKLEHHHHHH | not soluble |
| MGSDKIHHHHHHMIHFVPPHLEKVRAKLPEIAPTVDVILANLEDAIPADAKGAALAGLVAMSREVDFKALGVGFWTRINCLNSPWHLDEIATIVEKAGDKIDVIMVPKVEGPWDIFYMDQLLASLEAKHGVTRPILLHAILETAEGVMNVEAIAAASPRMQGISLGPADLAASRAMKTTRVGGGHPGYRVIEDPHADGSARVSVQQDLWHYTFAKMVDACAAHGIKPFYGPFGAIDDPVACEQQFRNAFLMGCAGAWSLHPSQIEIAKRVFSPDPAEVAFAKKILEAMPDGTGVAMIDGKMQDDATWKQAKVMVDCARQIAGKDAEYAGLYGL | not soluble |
| MGSDKIHHHHHHMRNPIHKRLEKFESWKNITFMLCLCERMYPNFYLFCQMTEQMDKAKIYQNILNLVWEYLTVKNAKINFENQLEKLENIIPDVNNYEFFGVVPALDACEGLSELLHAIIAGETLEKAIKISQLSLQTVITLLETQQDKAFSEAELKQSEEIELELDVQWQIYRTLNAHEERDIRLILDLKNELRESRVSNIGIEIAQ | not soluble |
| KKDFTWKTNLTFSLNRNKIVDLYGDKKDDLANRWFIGQPMKVIYDLEKVGIWQTEDKELAAKYGQVPGHIRVADLDENYVIDERDYKVLGSPSPDWTAGMTNTFTYKNWDLSFYMYARIGGTYNDDFTYMFTAWDNEHWNKLNVKYWTPENHSNEYQQIGAQSYHTQVLGKISGSFLKIQNITLGYTLPENWMKKMKMKNARAYINVQNPFTFTDYLGPDPETIGEDVYKSLSLYPMTFTFGVNLTF | not soluble |
| MTAVKHTTESTFAKLGVRDEIVRALGEEGIKRPFAIQELTLPLALDGEDVIGQARTGMGKTFAFGVPLLQRITSGDGTRPLTGAPRALVVVPTRELCLQVTDDLATAGKYLTAGPDTDDAAAVRRRLSVVSIYGGRPYEPQIEALRAGADVVVGTPGRLLDLCQQGHLQLGGLSVLVLDEADEMLDLGFLPDIERILRQIPADRQSMLFSATMPDPIITLARTFMVRPTHIRAEAPHSSAVHDATEQFVYRAHALDKVELVSRVLQARDRGATMIFTRTKRTAQKVADELTERGFAVGAVHGDLGQLAREKALKAFRTGGIDVLVATDVAARGIDIDDVTHVINYQCPEDEKMYVHRIGRTGRAGRTGVAVTLVDWDELPRWSMIDQALGLGSPDPAETYSNSPHLYAELAIPATAGGTVGPARKSQGRRRDTDCDGQKTAQHARNTPRRRRTRGGKPVTGHPGTNPISSPIVGGDATSEPGSGTASDSGSDVVSGSRSGNGEAARRRRRRRRRPTHAQDGFAARAN | soluble |
| TIDEINKAISSSLSRERIMETAMAQVERITGCEFVAILQAENGGLKVMSSHASGLEIPAALRPGAPLSLAGCTAWTAFRTGRSASIADLADTRKPGTVSRTLLAAGIRSLLAIPLMSRDQVKGVLLLGDTEPDKFARGETFTIEKIASQMAVALENARLYEDMR | not soluble |
| GEIYDEHDEVEAVQTLDNNTWLVLPNVKAAFFFNKWIKRDLVKSKNMTIQRYLASFENDGLNTQNKLETPWFIAEAIVDSENPEQIRYEIRKKSDVVD | soluble |
